According to the nanobody polyreactivity screen of Harvey et al. (2022):

test: yeast display, Sf9 membrane polyspecificity reagent, FACS + sequencing; frameworks hold sequencing errors
Outline: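 Polyreactivity labels are assigned by the sorting gate from which each nanobody was recovered. The gates were low and high (top ~1%), set on anti-HA fluorescence for expression and streptavidin fluorescence for reagent binding. Before sorting, galactose-induced (36–48 hours) yeast display cells were stained for 1 hour at 4 °C with 10% biotinylated, detergent-solubilized Sf9 membrane reagent.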

| Sequence | polyreactivity (PSR sort gate) |
| --- | --- |
| QVQLVESGGGLVQAGGSLRLSCAASGSIFYENMGWYRQSPRKERELVASISWSGTSTYADSVKGRFTISRDNAKNTVYLQMNSLKPEDSAVYYCAAGKNGYTYSRSYSYGYWGQGTQVTVSS | high polyreactivity |
| QVQLVESGGGLVQAGGSLRLSCAASGSIFYEYAMGWYRKAPGKEREFVAAISSSGGSTYYADSVKGRFTISRDNAKNTVYLQMNSLKPEDTAVYYCATQSSVLSWWYDYWGQGTQVTVSS | low polyreactivity |
| QVQLVESGGGLVQAGGSLRLSCAASGSIFYEYDMGWYRQAPGKERELVAALDGSADSTYYADSVKGRFTISRDNAKNTVYLQMNSLKPEDTAVYYCNTRYFRWDTEYGYWGQGTQLTVSS | low polyreactivity |
| QVQLVESGGGLVQAGGSLRLSCAASGSIFYFNGLGWSRQSPGKEREFVAAITWGDGSTYYADSVKGRFTISRDNAKNTVYLQMNSLKPADTAVYYCAAVLLIFKYVPRYDYWGQGSQVTVSS | low polyreactivity |
| QVQLVESGGGLVQAGGSLRLSCAASGSIFYFYAMGWYRQAPGKERELVAAISWSGGSTYYADSVKGRFTISRDNAKNTVYLQMNSLKPEDTAVYYCNAADYWYWENDYWGQGTQVTVSS | low polyreactivity |
| QVQLVESGGGLVQAGGSLRLSCAASGSIFYFYTMGWYRQAPGKERELVASITYSGGRTYYADSVKGRFTISRDNAKNTVYLQMNSLKPEDTAVYYCAVRGYRRYWGQGTQVTVSS | high polyreactivity |
| QVQLVESGGGLVQAGGSLRLSCAASGSIFYGNALGWYRQAPGKEREFVAAISSSGGSTYYADSVKGRFTISRDNAKNTVYLQMNSLKPEDTAVYYCAARGPKHTHSRRYFTEYDYWGQGTQVTVSS | low polyreactivity |
| QVQLVESGGGLVQAGGSLRLSCAASGSIFYGNAMGWYRQAPGKERELVAAIDGTGASTYYADSVKGRFTISRDNAKNTVYLQMNSLKPEDTAVYYCNKALTSKDYPVRTVERDYWGQGTQVTVSS | low polyreactivity |
| QVQLVESGGGLVQAGGSLRLSCAASGSIFYGNAMGWYRQAPGKERELVAAISESGGSTYYADSVKGRFTISRDNAKNTVYFQMNSLKPEDTAVYYCNSEAWGYYWWWGYDYWGHGTQVTVSS | low polyreactivity |
| QVQLVESGGGLVQAGGSLRLSCAASGSIFYGYAMGWYRQAPGKERELVAAISWTGGRTYYADSVKGRFTISRDNAKNTVYLQMNSLKPEDTAVYYCNVRRYSVVSGGYCGQGTQVTVSS | high polyreactivity |
| QVQLVESGGGLVQAGGSLRLSCAASGSIFYGYAMGWYRQSPGKERELVAAISSTGVRSYYADSVKGRFTISRDNAKNTVYLQMNSLKPEDSEVYYCAARRYGPGRYQEDYWGQGSQVTVSS | high polyreactivity |
| QVQLVESGGGLVQAGGSLRLSCAASGSIFYGYTMGWYRQEPGKERELVAAIRKSGGSTNYADSVKGRFTISRDNAKNTVFLQMNSLKPEDTAVYYCAAAYYRGRGYYWGQGTQVTVSS | high polyreactivity |
| QVQLVESGGGLVQAGGSLRLSCAASGSIFYGYVMGCYTQAPGKERELVAAISGGGSTNYADSVKGRFTISRDNAKNTVYLQMNSLKPEDTAVYYCNTEDWAVGSPEVEYEYDYWGQGTQVTVSS | low polyreactivity |
| QVQLVESGGGLVQAGGSLRLSCAASGSIFYHNAMGWYRQAPGKERELVAAITWSGSTTYYADSVKGRFTISRDNAKNTVYLQMNSLKPEDTAVYYCNGGYRHGHYDYWGQGTQVTVSS | low polyreactivity |
| QVQLVESGGGLVQAGGSLRLSCAASGSIFYHNAMGWYRQAPGKERELVARISSRGGSTYYADSVKGRFTISRDNAKNTVYLQMNSLKPEDTAVYYCNNAYRYTSAYDYWGQGTQVTVSS | high polyreactivity |
| QVQLVESGGGLVQAGGSLRLSCAASGSIFYHNAMGWYRRAPGKEREFVAAITGSGGSTYYADSVKGRFTISRDNAKNTVYLQMNSLKPEDTAVYYCASVGYTKWWISWGYDYWGQGTQVTVSS | low polyreactivity |

| Sequence | polyreactivity (PSR sort gate) |
| --- | --- |
| QVQLVESGGGLVQAGGSLRLSCAASGSIFYHYAMGLYRQAPGKERELVAAISGSGGSTYYADSVKGRFTISRDNAKNTVYLQMNSLKPEDTAVYYCAADTSRYHYTRYFFDSDYWGQGTQVTVSS | low polyreactivity |
| QVQLVESGGGLVQAGGSLRLSCAASGSIFYHYAMGWYRQAPGKERELVAAISSGGSTSYADSVKGRFTISRDNAKNTVYLQMNSLKPEDTAVYYCNARRIRSRSWKYDYWGQGTQVTVSS | low polyreactivity |
| QVQLVESGGGLVQAGGSLRLSCAASGSIFYHYAMGWYRQAPGKERELVAGITSSGDRTHYADSVKGRFTISRDNAKNSVYLQMNSLKPEDTAVYYCNTATIHGTAYDYWGQGTQVTVSS | low polyreactivity |
| QVQLVESGGGLVQAGGSLRLSCAASGSIFYHYAMGWYRQAPGKERELVAGITSSGDRTHYADSVKGRFTISRDNAKNTVYLQMNSLKPEDTAVYYCNTATIHGTAYDYWGQGTQVTVSS | low polyreactivity |
| QVQLVESGGGLVQAGGSLRLSCAASGSIFYINAMGCYRQAPGKEREMVAAITSDGSTYYADSVKGRFTISRDNAKNTVYLQMNSLNPEDTAVYYCAADLTSDQYMYYWYWFYSWGQGTQVPVSS | low polyreactivity |
| QVQLVESGGGLVQAGGSLRLSCAASGSIFYINAMGWYRQAPGKEREFVARISWRSGSTSYADSVKGRFTISRDNAKNTVYLQMNSLKPEDTAVYYCNAGDFANDNGGRRDQFTWEDEYWGQGTQVTVSS | low polyreactivity |
| QVQLVESGGGLVQAGGSLRLSCAASGSIFYINAMGWYRQAPGKERELVAAIRSGGSTNYADSVKGRFTISRDNAKNTVYLQMNSLKPEDTAVYYCNARSRSYVPYYYWGQGTQVTVSS | high polyreactivity |
| QVQLVESGGGLVQAGGSLRLSCAASGSIFYINDMGWYRQAPGKERELVAAISWSGGTTYYADSVKVRFTISRDNAKNTVYLQMNSLKPEDTAVYYCATDYFFLFPWGLSDYWGQGTQVTVSS | low polyreactivity |
| QVQLVESGGGLVQAGGSLRLSCAASGSIFYINDMGWYRQAPGTERELVAAISWSGGTTYYADSVKGRFTISRDNAKNTVYLQMNSLKPEDTAVYYCATDSFFLFPWGLSDYWGQGTQVTVSS | low polyreactivity |
| QVQLVESGGGLVQAGGSLRLSCAASGSIFYKNAMAWYRQAPGKERELVAAITWSGGSTYYADSVKGRFTISRDNAKNTVYLHMNSLKPEDTAVYYCAAGLYRYRKYGYWGQGTQVTVSS | low polyreactivity |
| QVQLVESGGGLVQAGGSLRLSCAASGSIFYLYAMGWYRQAPGKEREFVAAITSSSGSTHYADSVKGRFTISRDNAKNTVYYQMNSLKPEDTAVYYCAKDYGPWTYDYWGQGTQVTVSS | low polyreactivity |
| QVQLVESGGGLVQAGGSLRLSCAASGSIFYLYAMGWYRQAPGKERELVAGIRYRGGSTYYADSVKGRFTISRDNAKNTVYLQMNSLKPEDTAVYYCAAEYGDGRYWSYDYWGQGTQVTVSS | high polyreactivity |
| QVQLVESGGGLVQAGGSLRLSCAASGSIFYLYAMGWYRQEPGKERELVAAITSGDSTTYADSVKGRFTISRDNAKNTVYLQMNSLIPEDTAVYYCAADWPGLVGYHNSAENDYWGQGTQVTVSS | low polyreactivity |
| QVQLVESGGGLVQAGGSLRLSCAASGSIFYLYTMGWYRQAPGKERELVASITYSGGTYYADSVKGRFTISRDNAKNTVYLQMNSLKPEDTAVYYCNAHIPTNRSYVPEVRGEYDYWGQGTQVTVSS | low polyreactivity |
| QVQLVESGGGLVQAGGSLRLSCAASGSIFYNAMGWYRQAPGKERELVAAISYRGGRTYYADSVKGRFTISRDNAKNTVYLQMNSLKPEDTAVYYCAADSTVGRYPYDYWGQGTQVTVSS | high polyreactivity |
